According to patent publication US6500428B1, “Antibodies to a lymphocyte surface receptor that binds CAML and methods of use thereof” (St. Jude Children's Research Hospital, priority 1997, dated 2002):

T1: TACI-1 (Homo sapiens, UniProt O14836)
T1 sequence (O14836 1-293): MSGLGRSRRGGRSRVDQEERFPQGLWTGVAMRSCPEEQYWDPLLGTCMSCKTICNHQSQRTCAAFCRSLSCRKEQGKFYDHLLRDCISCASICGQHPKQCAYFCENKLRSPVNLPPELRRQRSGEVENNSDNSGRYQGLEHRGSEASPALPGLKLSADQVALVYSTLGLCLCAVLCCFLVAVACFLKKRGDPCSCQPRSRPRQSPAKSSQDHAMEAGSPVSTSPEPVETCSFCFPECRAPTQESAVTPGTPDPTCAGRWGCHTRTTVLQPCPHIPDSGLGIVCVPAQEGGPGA

B1: CAML(1-146): N-terminal 146 amino acids of CAML, expressed from plasmid; dominant negative inhibitor of TACI-1 signaling (protein, UniProt P49069 1-146, looked up, fragment)
chain: MESMAVATDGGERPGVPAGSGLSASQRRAELRRRKLLMNSEQRINRIMGFHRPGSGAEEESQTKSKQQDSDKLNSLSVPSVSKRVVLGDSVSTGTTDQQGGVAEVKGTQLGDKLDSFIKPPECSSDVNLELRQRNRGDLTADSVQR

How the values were obtained:
[1] = molecular target: T1, TACI-1; assay: NF-AT-driven secreted alkaline phosphatase reporter in TAg Jurkat T cells transfected with TACI-1; type: cell-based; set-up: expressed in transfected cells; host or cells: TAg Jurkat T cells, plasmid pBJ5-TACI-1; details: antibody-cross linked TACI-1 in TAg Jurkat T cells; CsA 100 ng/ml, FK506 500 pg/ml; EGTA increasing concentrations; CAML(1-146) co-transfected
Description: FIG. 4. TACI-1 is a signaling protein that functions in the activation of NF-AT-specific transcription. FIG. 4A depicts the activation of an NF-AT-driven secreted alkaline phosphatase reporter. TAg Jurkat T cells, co-transfected with the SXNFAT reporter [Bram et al., Mol. Cell. Biol., 13:4760-4769 (1993)] and the expression plasmid pBJ5 [Takebe, Y, et al., Mol. Cell. Biol., 8:466-472 (1988)] containing either TACI-1-encoding cDNA (solid triangles) or nothing (circles), were treated with 50 ng/ml PMA and the indicated amounts of ionomycin in the presence (closed symbols) and absence (open symbols) of magnetic beads coated with immunoaffinity-purified anti-TACI-1 polyclonal antibodies. […] NF-AT activation was determined in TAg Jurkat T cells co-transfected with SXNFAT and pBJ5 (−TACI-1, left) or pBJ5-TACI-1 (+TACI-1, right), and treated with the indicated combinations of PMA (50 ng/ml), ionomycin (2 μM), CsA (100 ng/ml) and FK506 (500 pg/ml) in the presence of anti-TACI-1 antibody-coated beads (‘NS’, not stimulated). […] NF-AT activation was measured in the presence of EGTA in Jurkat T cells over expressing TACI-1. […] AP-1 activation was measured in TAg Jurkat T cells, co-transfected with a mouse metallothionein AP-1-SEAP reporter [Bram et al., 1991, supra] and pBJ5 containing no insert (−TACI-1, left) or TACI-1 cDNA (+TACI-1, right). […]

[2] = molecular target: T1, TACI-1; assay: Co-immunoprecipitation with FLAG-tagged TACI-1 from 293T cell lysates; type: binding; details: anti-FLAG agarose beads
Description: FIGS. 5A-5D. TACI-1 interaction with CAML is critical for Ca^2+ signaling. […] Full-length cDNAs and indicated deletion mutants of TACI-1 and CAML were cloned into the yeast expression plasmids pACT and/or pAS1, and the indicated combinations were tested for interaction with the yeast 2-hybrid system (‘+’, positive interaction; ‘−’, no interaction; ‘ND’, not done). FIG. 5D depicts the co-immunoprecipitation of CAML with TACI-1. 293T cells were transfected with the indicated combinations of the expression plasmid pBJ5 containing cDNAs for CAML. TACI-1 with an N-terminal FLAG tag, the N-terminal 146 amino acids of CAML (CLX91), or no insert. After incubation for 48 hours, the cells were lysed (1% dodecyl maltoside, 20 […] HEPES pH 7.4. 150 mM NaCl, 10% glycerol, 2 mM MgSO4, 1 mM CaCl2, 1 mM PMSF) and the lysate was clarified by centrifugation. FLAG-tagged TACI-1 and associated proteins were immunoprecipitated with anti-FLAG monoclonal antibody-conjugated agarose beads and subjected to Western transfer using standard protocols. […] NF-AT activation was determined in TAg Jurkat cells transfected with pBJ5 alone, pBJ5-TACI-1 plus the control plasmid, or pBJ5-TACI-1 with an equivalent amount of CLX91, following treatment with TACI-1-specific antibodies (top). TACI-1 expression in these transfections was determined by Western blot using anti-TACI-1 polyclonal antibodies (bottom). […]

[3] = test system: PMA plus ionomycin-induced NF-AT activity; assay: PMA plus ionomycin-induced NF-AT activity in Jurkat T cells (specificity control); type: cell-based, human; details: co-transfection in Jurkat T cells
Description: To examine whether TACI-1 signaling depends on the association of TACI-1 with CAML. the interacting domain of CAML (residues 1-146) is tested to determine if it can inhibit TACI-1-induced NF-AT activation in a dominant negative fashion. […] CAML(1-146) lacks the hydrophobic transmembrane domains that are required for Ca^2+ influx activity [Holloway & Bram, Biol. Chem., 271:8549-8552 (1996)].

Row | Molecule | effect on TACI-1-mediated NF-AT activation [1] | co-immunoprecipitation with TACI-1 [2] | effect on PMA plus ionomycin-induced NF-AT activity [3]
1 | O=C(O)CN(CCOCCOCCN(CC(=O)O)CC(=O)O)CC(=O)O [EGTA, reference compound] | inhibition |  | 
2 | B1 | completely eliminates | co-immunoprecipitated | no inhibitory effect
